Patent US20160272683A1 (Novo Nordisk, published 2016)
Numbered stars: 1 amine (or outer) side, 2 acyl side, 3 side chain; on linkers, the order of the positions; unused ones are H or OH. * marks the point of attachment. C20 diacid = O=C(O)CCCCCCCCCCCCCCCCCCC(=O)*; C18 diacid = O=C(O)CCCCCCCCCCCCCCCCC(=O)*; γGlu = O=C(O)[C@H](CCC(=O)[*:2])N[*:1]; AEEA = NCCOCCOCC(=O)O

T1: human amylin 3(a) receptor (human calcitonin receptor co-expressed with RAMP-3) (human, UniProt P30988 25-474; O60896 24-148, limits assumed)
T1 sequence (looked up) 1: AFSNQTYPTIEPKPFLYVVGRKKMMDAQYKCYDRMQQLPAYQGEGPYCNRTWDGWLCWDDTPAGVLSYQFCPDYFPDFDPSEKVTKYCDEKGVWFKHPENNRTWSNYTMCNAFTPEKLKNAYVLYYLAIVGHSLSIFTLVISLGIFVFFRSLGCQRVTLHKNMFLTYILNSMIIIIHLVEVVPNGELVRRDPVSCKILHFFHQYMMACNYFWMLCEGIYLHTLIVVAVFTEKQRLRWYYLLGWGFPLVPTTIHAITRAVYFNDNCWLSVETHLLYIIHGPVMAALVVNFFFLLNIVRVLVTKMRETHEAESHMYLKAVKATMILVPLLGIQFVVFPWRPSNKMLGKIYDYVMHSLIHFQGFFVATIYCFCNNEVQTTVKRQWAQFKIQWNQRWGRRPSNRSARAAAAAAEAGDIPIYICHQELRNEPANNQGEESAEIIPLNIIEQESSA
T1 sequence (looked up) 2: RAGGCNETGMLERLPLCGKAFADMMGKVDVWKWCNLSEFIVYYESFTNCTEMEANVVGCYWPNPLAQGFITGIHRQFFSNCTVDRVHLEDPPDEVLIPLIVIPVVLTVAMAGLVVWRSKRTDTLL

T2: human calcitonin receptor (human, UniProt P30988 25-474)
T2 sequence (looked up): T1 sequence (looked up) 1

B1: [N-terminal(C18 diacid-gGlu-2xOEG), des1, 4G, 9V, 15Q, 21Q, 23Y, 30S, 31G, 32T, 33Y]mimylin (peptide)
peptide: {C18 diacid-γGlu-AEEA-AEEA}-ASGLSTAVLGRLSQELHELQTYPRTETGSGTY-NH2
SMILES: CC(C)C[C@H](NC(=O)CNC(=O)[C@H](CO)NC(=O)[C@H](C)NC(=O)COCCOCCNC(=O)COCCOCCNC(=O)CC[C@H](NC(=O)CCCCCCCCCCCCCCCCC(=O)O)C(=O)O)C(=O)N[C@@H](CO)C(=O)N[C@H](C(=O)N[C@@H](C)C(=O)N[C@H](C(=O)N[C@@H](CC(C)C)C(=O)NCC(=O)N[C@@H](CCCNC(=N)N)C(=O)N[C@@H](CC(C)C)C(=O)N[C@@H](CO)C(=O)N[C@@H](CCC(N)=O)C(=O)N[C@@H](CCC(=O)O)C(=O)N[C@@H](CC(C)C)C(=O)N[C@@H](Cc1c[nH]cn1)C(=O)N[C@@H](CCC(=O)O)C(=O)N[C@@H](CC(C)C)C(=O)N[C@@H](CCC(N)=O)C(=O)N[C@H](C(=O)N[C@@H](Cc1ccc(O)cc1)C(=O)N1CCC[C@H]1C(=O)N[C@@H](CCCNC(=N)N)C(=O)N[C@H](C(=O)N[C@@H](CCC(=O)O)C(=O)N[C@H](C(=O)NCC(=O)N[C@@H](CO)C(=O)NCC(=O)N[C@H](C(=O)N[C@@H](Cc1ccc(O)cc1)C(N)=O)[C@@H](C)O)[C@@H](C)O)[C@@H](C)O)[C@@H](C)O)C(C)C)[C@@H](C)O
B2: [N-terminal(C20 diacid-gGlu), des1, 4G, 9V, 15Q, 21Q, 23Y, 30S, 31A, 32T, 33Y]mimylin (peptide)
peptide: {C20 diacid-γGlu}-ASGLSTAVLGRLSQELHELQTYPRTETGSATY-NH2
SMILES: CC(C)C[C@H](NC(=O)CNC(=O)[C@H](CO)NC(=O)[C@H](C)NC(=O)CC[C@H](NC(=O)CCCCCCCCCCCCCCCCCCC(=O)O)C(=O)O)C(=O)N[C@@H](CO)C(=O)N[C@H](C(=O)N[C@@H](C)C(=O)N[C@H](C(=O)N[C@@H](CC(C)C)C(=O)NCC(=O)N[C@@H](CCCNC(=N)N)C(=O)N[C@@H](CC(C)C)C(=O)N[C@@H](CO)C(=O)N[C@@H](CCC(N)=O)C(=O)N[C@@H](CCC(=O)O)C(=O)N[C@@H](CC(C)C)C(=O)N[C@@H](Cc1c[nH]cn1)C(=O)N[C@@H](CCC(=O)O)C(=O)N[C@@H](CC(C)C)C(=O)N[C@@H](CCC(N)=O)C(=O)N[C@H](C(=O)N[C@@H](Cc1ccc(O)cc1)C(=O)N1CCC[C@H]1C(=O)N[C@@H](CCCNC(=N)N)C(=O)N[C@H](C(=O)N[C@@H](CCC(=O)O)C(=O)N[C@H](C(=O)NCC(=O)N[C@@H](CO)C(=O)N[C@@H](C)C(=O)N[C@H](C(=O)N[C@@H](Cc1ccc(O)cc1)C(N)=O)[C@@H](C)O)[C@@H](C)O)[C@@H](C)O)[C@@H](C)O)C(C)C)[C@@H](C)O
B3: [N-terminal(C20 diacid-gGlu), des1, 2L, 4G, 9V, 21S, 23Y, 30S, 31G, 32T, 33Y]mimylin (peptide)
peptide: {C20 diacid-γGlu}-LSGLSTAVLGRLSAELHELSTYPRTETGSGTY-NH2
SMILES: CC(C)C[C@H](NC(=O)CC[C@H](NC(=O)CCCCCCCCCCCCCCCCCCC(=O)O)C(=O)O)C(=O)N[C@@H](CO)C(=O)NCC(=O)N[C@@H](CC(C)C)C(=O)N[C@@H](CO)C(=O)N[C@H](C(=O)N[C@@H](C)C(=O)N[C@H](C(=O)N[C@@H](CC(C)C)C(=O)NCC(=O)N[C@@H](CCCNC(=N)N)C(=O)N[C@@H](CC(C)C)C(=O)N[C@@H](CO)C(=O)N[C@@H](C)C(=O)N[C@@H](CCC(=O)O)C(=O)N[C@@H](CC(C)C)C(=O)N[C@@H](Cc1c[nH]cn1)C(=O)N[C@@H](CCC(=O)O)C(=O)N[C@@H](CC(C)C)C(=O)N[C@@H](CO)C(=O)N[C@H](C(=O)N[C@@H](Cc1ccc(O)cc1)C(=O)N1CCC[C@H]1C(=O)N[C@@H](CCCNC(=N)N)C(=O)N[C@H](C(=O)N[C@@H](CCC(=O)O)C(=O)N[C@H](C(=O)NCC(=O)N[C@@H](CO)C(=O)NCC(=O)N[C@H](C(=O)N[C@@H](Cc1ccc(O)cc1)C(N)=O)[C@@H](C)O)[C@@H](C)O)[C@@H](C)O)[C@@H](C)O)C(C)C)[C@@H](C)O
B4: [N-terminal(C20 diacid-gGlu), des1, 4G, 9V, 15Q, 21Q, 23Y, 25P, 30S, 31Q, 32T, 33Y]mimylin (peptide)
peptide: {C20 diacid-γGlu}-ASGLSTAVLGRLSQELHELQTYPPTETGSQTY-NH2
SMILES: CC(C)C[C@H](NC(=O)CNC(=O)[C@H](CO)NC(=O)[C@H](C)NC(=O)CC[C@H](NC(=O)CCCCCCCCCCCCCCCCCCC(=O)O)C(=O)O)C(=O)N[C@@H](CO)C(=O)N[C@H](C(=O)N[C@@H](C)C(=O)N[C@H](C(=O)N[C@@H](CC(C)C)C(=O)NCC(=O)N[C@@H](CCCNC(=N)N)C(=O)N[C@@H](CC(C)C)C(=O)N[C@@H](CO)C(=O)N[C@@H](CCC(N)=O)C(=O)N[C@@H](CCC(=O)O)C(=O)N[C@@H](CC(C)C)C(=O)N[C@@H](Cc1c[nH]cn1)C(=O)N[C@@H](CCC(=O)O)C(=O)N[C@@H](CC(C)C)C(=O)N[C@@H](CCC(N)=O)C(=O)N[C@H](C(=O)N[C@@H](Cc1ccc(O)cc1)C(=O)N1CCC[C@H]1C(=O)N1CCC[C@H]1C(=O)N[C@H](C(=O)N[C@@H](CCC(=O)O)C(=O)N[C@H](C(=O)NCC(=O)N[C@@H](CO)C(=O)N[C@@H](CCC(N)=O)C(=O)N[C@H](C(=O)N[C@@H](Cc1ccc(O)cc1)C(N)=O)[C@@H](C)O)[C@@H](C)O)[C@@H](C)O)[C@@H](C)O)C(C)C)[C@@H](C)O
B5: [N-terminal(C20 diacid-gGlu), des1, 4G, 8L, 9V, 15Q, 21Q, 23Y, 30S, 31Q, 32T, 33Y]mimylin (peptide)
peptide: {C20 diacid-γGlu}-ASGLSTLVLGRLSQELHELQTYPRTETGSQTY-NH2
SMILES: CC(C)C[C@H](NC(=O)CNC(=O)[C@H](CO)NC(=O)[C@H](C)NC(=O)CC[C@H](NC(=O)CCCCCCCCCCCCCCCCCCC(=O)O)C(=O)O)C(=O)N[C@@H](CO)C(=O)N[C@H](C(=O)N[C@@H](CC(C)C)C(=O)N[C@H](C(=O)N[C@@H](CC(C)C)C(=O)NCC(=O)N[C@@H](CCCNC(=N)N)C(=O)N[C@@H](CC(C)C)C(=O)N[C@@H](CO)C(=O)N[C@@H](CCC(N)=O)C(=O)N[C@@H](CCC(=O)O)C(=O)N[C@@H](CC(C)C)C(=O)N[C@@H](Cc1c[nH]cn1)C(=O)N[C@@H](CCC(=O)O)C(=O)N[C@@H](CC(C)C)C(=O)N[C@@H](CCC(N)=O)C(=O)N[C@H](C(=O)N[C@@H](Cc1ccc(O)cc1)C(=O)N1CCC[C@H]1C(=O)N[C@@H](CCCNC(=N)N)C(=O)N[C@H](C(=O)N[C@@H](CCC(=O)O)C(=O)N[C@H](C(=O)NCC(=O)N[C@@H](CO)C(=O)N[C@@H](CCC(N)=O)C(=O)N[C@H](C(=O)N[C@@H](Cc1ccc(O)cc1)C(N)=O)[C@@H](C)O)[C@@H](C)O)[C@@H](C)O)[C@@H](C)O)C(C)C)[C@@H](C)O

These binders were tested against T1, human amylin 3(a) receptor (human …) (assay: cell-based or functional assay).

Binder | hAmylin-R funct. EC50 (pM)
B1 | 50 pM
B2 | 53 pM
B3 | 24 pM
{C20 diacid-γGlu}-ASGLSTATLGRLSQELHELQTYPRTETGSGTY-NH2 [[N-terminal(C20 diacid-gGlu), des1, 4G, 9T, 15Q, 21Q, 23Y, 30S, 31G, 32T, 33Y]mimylin] | 40 pM
B4 | 70 pM
B5 | 52 pM

These binders were tested against T2, human calcitonin receptor (assay: cell-based or functional assay).

Binder | hCTR funct. EC50 (pM)
B1 | 22 pM
B2 | 52 pM
B3 | 28 pM
{C20 diacid-γGlu}-ASGLSTATLGRLSQELHELQTYPRTETGSGTY-NH2 [[N-terminal(C20 diacid-gGlu), des1, 4G, 9T, 15Q, 21Q, 23Y, 30S, 31G, 32T, 33Y]mimylin] | 34 pM
B4 | 57 pM
B5 | 40 pM
